Assay results as given in patent US10500249B2, “Compositions and methods for preventing or treating diseases, conditions, or processes characterized by aberrant fibroblast proliferation and extracellular matrix deposition” (MOERAE MATRIX, INC., priority 2014, dated 2019).

Key:
Test in all cases: Kinase Profiling Assay
Assay type in all cases: biochemical
Conditions in all cases: 100 μM
Met(Y1248C) (h) = Met(Y1248C) (h) (Homo sapiens, UniProt P08581, Y1230C)
Procedure, shortened: (§1)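 Kinase inhibition by MK2 inhibitory peptides was profiled radiometrically, with substrate phosphorylation from labeled ATP read by scintillation after capture on a charged filter. Values are relative to 100% activity and measured in duplicate.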

WNK3 (h) = WNK3 (h) (Homo sapiens, UniProt Q9BYP7)
Sequence of WNK3 (h) (Q9BYP7 whole entry): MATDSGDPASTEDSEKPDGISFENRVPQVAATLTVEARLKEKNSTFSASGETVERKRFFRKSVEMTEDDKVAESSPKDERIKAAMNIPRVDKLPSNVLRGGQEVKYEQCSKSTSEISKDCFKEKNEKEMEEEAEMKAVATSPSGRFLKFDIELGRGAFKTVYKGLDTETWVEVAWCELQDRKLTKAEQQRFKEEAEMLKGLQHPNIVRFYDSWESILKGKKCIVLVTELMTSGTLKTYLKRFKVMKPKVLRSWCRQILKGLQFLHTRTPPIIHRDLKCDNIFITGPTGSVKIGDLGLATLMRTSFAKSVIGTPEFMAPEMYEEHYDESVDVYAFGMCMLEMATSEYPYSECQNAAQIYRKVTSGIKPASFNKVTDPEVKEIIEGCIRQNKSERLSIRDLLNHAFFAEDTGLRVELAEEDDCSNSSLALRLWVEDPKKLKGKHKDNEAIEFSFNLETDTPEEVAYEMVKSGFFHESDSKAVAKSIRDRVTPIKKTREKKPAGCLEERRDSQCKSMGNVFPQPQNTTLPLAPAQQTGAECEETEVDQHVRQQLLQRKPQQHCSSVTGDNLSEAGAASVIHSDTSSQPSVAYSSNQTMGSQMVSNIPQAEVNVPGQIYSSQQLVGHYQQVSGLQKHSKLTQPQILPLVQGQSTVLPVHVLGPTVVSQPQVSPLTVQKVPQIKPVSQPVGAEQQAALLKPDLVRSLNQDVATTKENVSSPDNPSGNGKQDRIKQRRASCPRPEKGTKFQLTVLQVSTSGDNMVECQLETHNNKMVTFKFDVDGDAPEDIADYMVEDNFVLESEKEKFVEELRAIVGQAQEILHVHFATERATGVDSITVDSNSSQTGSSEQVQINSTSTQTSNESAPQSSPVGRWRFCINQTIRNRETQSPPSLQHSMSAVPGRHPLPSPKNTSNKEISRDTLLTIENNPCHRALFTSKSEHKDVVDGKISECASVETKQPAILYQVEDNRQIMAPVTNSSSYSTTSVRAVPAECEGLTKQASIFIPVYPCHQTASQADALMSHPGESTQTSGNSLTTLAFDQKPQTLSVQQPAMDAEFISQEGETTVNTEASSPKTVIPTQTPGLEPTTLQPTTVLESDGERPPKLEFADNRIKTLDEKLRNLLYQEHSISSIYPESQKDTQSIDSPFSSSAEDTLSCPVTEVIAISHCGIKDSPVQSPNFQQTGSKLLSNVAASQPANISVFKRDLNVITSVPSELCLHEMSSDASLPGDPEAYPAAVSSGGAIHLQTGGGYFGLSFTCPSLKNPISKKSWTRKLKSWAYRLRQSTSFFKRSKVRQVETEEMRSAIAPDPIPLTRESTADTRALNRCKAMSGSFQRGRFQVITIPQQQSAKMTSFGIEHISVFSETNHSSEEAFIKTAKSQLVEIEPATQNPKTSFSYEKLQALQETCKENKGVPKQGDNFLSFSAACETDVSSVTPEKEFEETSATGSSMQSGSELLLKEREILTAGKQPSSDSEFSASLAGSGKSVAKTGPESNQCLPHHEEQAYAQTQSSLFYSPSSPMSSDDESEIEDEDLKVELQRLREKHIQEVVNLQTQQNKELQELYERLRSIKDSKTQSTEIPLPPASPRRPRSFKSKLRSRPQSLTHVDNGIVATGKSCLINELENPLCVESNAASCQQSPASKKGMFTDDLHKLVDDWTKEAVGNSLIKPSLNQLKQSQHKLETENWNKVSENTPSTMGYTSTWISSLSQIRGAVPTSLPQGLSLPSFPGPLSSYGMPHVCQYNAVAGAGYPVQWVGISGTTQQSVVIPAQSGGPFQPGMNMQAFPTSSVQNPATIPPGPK
Procedure, shortened: as §1

Src(T341M) (h) = Src(T341M) (h) (Homo sapiens, UniProt P12931, T341M)
Procedure, shortened: as §1

cKit (h) = target: T1, cKit (h) (Homo sapiens, UniProt P10721)
T1 construct: purchased Millipore
Procedure, shortened: as §1

mTOR (h) = target: T2, mTOR (h) (Homo sapiens, UniProt P42345)
T2 construct: purchased Millipore
Procedure, shortened: as §1

Rse (h) = target: T3, Rse (h) (Homo sapiens, UniProt Q06418)
T3 sequence (Q06418 41-890): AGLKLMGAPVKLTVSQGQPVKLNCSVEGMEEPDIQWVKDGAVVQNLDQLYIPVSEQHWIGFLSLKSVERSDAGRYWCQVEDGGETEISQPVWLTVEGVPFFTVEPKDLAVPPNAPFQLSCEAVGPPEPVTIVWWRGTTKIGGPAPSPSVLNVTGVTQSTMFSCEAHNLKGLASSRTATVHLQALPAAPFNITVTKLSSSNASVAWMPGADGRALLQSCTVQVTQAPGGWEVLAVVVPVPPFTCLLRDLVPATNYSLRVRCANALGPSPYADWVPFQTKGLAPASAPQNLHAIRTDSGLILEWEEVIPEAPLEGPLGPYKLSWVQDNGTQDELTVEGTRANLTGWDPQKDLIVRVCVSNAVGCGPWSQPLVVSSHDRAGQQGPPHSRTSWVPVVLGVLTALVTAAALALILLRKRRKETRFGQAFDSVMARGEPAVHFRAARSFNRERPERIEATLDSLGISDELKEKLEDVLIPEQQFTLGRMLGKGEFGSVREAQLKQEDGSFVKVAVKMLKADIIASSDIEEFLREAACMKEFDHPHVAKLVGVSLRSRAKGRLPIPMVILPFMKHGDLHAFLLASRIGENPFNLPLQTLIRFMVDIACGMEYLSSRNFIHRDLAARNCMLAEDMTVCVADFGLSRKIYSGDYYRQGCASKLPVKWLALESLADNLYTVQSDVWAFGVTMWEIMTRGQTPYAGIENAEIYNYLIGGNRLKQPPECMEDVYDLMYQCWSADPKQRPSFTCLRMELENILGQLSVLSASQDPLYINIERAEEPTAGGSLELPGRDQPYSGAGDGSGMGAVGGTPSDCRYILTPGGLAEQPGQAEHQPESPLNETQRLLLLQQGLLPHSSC
Procedure, shortened: as §1

TSSK1 (h) = target: T4, TSSK1 (h) (Homo sapiens, UniProt Q9BXA7)
T4 sequence (Q9BXA7 1-367): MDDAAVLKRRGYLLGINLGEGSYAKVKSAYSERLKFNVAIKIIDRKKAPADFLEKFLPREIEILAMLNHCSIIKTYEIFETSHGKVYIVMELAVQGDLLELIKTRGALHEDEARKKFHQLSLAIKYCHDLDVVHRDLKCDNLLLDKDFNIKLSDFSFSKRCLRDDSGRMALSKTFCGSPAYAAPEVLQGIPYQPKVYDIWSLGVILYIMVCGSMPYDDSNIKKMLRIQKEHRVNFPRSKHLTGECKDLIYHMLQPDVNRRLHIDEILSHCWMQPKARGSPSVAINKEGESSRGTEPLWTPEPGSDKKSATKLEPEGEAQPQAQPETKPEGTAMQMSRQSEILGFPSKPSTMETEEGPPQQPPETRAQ
Procedure, shortened: as §1

GCK (h) = target: T5, GCK (h) (Homo sapiens, UniProt Q12851)
T5 construct: purchased Millipore
T5 sequence (Q12851 1-820): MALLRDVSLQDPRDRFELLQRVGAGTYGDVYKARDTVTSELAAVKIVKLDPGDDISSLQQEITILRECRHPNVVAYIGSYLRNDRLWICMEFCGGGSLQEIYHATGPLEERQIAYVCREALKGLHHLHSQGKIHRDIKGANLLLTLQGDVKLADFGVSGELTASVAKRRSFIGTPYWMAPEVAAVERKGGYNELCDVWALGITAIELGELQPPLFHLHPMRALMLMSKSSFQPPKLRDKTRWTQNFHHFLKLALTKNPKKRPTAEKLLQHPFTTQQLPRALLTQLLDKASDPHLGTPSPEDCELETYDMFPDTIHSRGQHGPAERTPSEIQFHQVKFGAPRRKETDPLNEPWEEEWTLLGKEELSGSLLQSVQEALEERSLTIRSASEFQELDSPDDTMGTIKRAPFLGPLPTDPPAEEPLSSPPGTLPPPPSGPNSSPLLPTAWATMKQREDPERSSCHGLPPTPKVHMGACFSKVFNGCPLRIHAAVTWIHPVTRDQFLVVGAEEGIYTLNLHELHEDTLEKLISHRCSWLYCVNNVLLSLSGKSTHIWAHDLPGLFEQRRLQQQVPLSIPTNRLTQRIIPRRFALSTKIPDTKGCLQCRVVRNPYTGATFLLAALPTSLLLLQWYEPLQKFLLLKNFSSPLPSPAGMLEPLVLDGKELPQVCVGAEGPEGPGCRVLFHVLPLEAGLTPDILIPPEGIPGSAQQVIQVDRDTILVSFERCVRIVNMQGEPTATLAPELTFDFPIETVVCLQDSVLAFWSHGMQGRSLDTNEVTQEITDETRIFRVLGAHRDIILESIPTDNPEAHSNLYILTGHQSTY
Procedure, shortened: as §1

Sequence | % activity (Met(Y1248C) (h)) [%] | % activity (WNK3 (h)) [%] | % activity (Src(T341M) (h)) [%] | % activity (cKit (h)) [%] | % activity (mTOR (h)) [%] | % activity (Rse (h)) [%] | % activity (TSSK1 (h)) [%] | % activity (GCK (h)) [%]
FAKLAARLYRKALARQLGVAA [MMI-0300] | 84 | 77 | 70 | 53 | 91 | 88 | 79 | 70
HRRIKAWLKKIKALARQLGVAA (Mammalian) [MMI-0500] | 73 | 9 | 59 | 45 | 135 | 63 | 46 | 30
KAFAKLAARLYRKALARQLGVAA [MMI-0400] | 36 | 74 | 76 | 43 | 93 | 89 | 79 | 66
YARAAARQARAKALNRQLGVA (Mammalian) [MMI-0200] | 141 | 97 | 56 | 110 | 110 | 88 | 98 | 99
